How the values were obtained:
[1] = Phase 3 safety: TEAEs and tolerability, OAKS and DERBY; format: in vivo, human; conditions: for Endophthalmitis (serious ocular TEAE), % / Endophthalmitis (serious ocular TEAE), M (number of events): infectious and non-infectious
Protocol: All randomized subjects returned every month to the clinical site for assessments and additional pegcetacoplan or sham injections according to their randomization scheme until Month 12. From Month 12 onwards, subjects return to the clinical site based on their randomized treatment schedule (monthly or EOM) and follow the treatment regimen and assessments outlined in the Visit Schedule until Month 24. Safety was assessed throughout the study by a number of evaluations including: monitoring of AEs, preinjection and postinjection monitoring, blood and urine samples collected, physical examination, vital signs, and follow-up phone calls. Blood samples were also be collected for anti-therapeutic antibodies, genotyping, and clinical repository (if the subject consented to this portion).
Safety endpoints included incidence and severity of ocular and systemic treatment-emergent adverse events; incidence of ADA directed against pegcetacoplan peptide or PEG; incidence of new active CNV in the study eye; incidence of new onset of subclinical CNV in the study eye; incidence of subjects who lost letters based on NL-BCVA categories (≥15, ≥15-<30, ≥30 ETDRS letters); change/shift from baseline in clinical labs and incidence of abnormal lab values; change from baseline in vital signs and incidence of abnormal vital sign results; shift from baseline in ocular examination assessments including slit-lamp examination and indirect ophthalmoscopy; change from baseline in Intra Ocular Pressure (IOP) and incidence of IOP above specified thresholds; and change/shift from baseline in ocular imaging assessments (including specular microscopy; select sites).
The Safety set consisted of all subjects randomized who received at least one injection of pegcetacoplan or sham. Subjects were analyzed according to the actual treatment received. […] This population was used for all safety analyses.

[2] = system: geographic atrophy (GA) secondary to age-related macular degeneration (AMD); experiment: Post hoc microperimetry perilesional analysis, OAKS study; format: in vivo, human; conditions: 24 months
Protocol: LS means estimated from MMRM analysis. […] Perilesional area defined as −250 μm inside baseline atrophy border to +250 μm outside atrophy border. dB=decibel; LS=least square; M=month; mITT=modified intent-to-treat; MMRM=mixed-effects model for repeated measures; PEOM=pegcetacoplan every other month; PM=pegcetacoplan monthly; SE=standard error.
A post hoc microperimetry perilesional analysis was performed on patients in the OAKS study to assess whether pegcetacoplan preservation of retinal tissue was reflected in preserved photoreceptor function in retina near GA lesion borders at baseline. Geographic atrophy lesion borders grow at approximately 100-150 microns per year. An assessment was performed of visual function of cells within 250 microns on either side of the lesion border, which are at the highest risk of permanently losing visual function as lesions expand. Reduction of retinal sensitivity as measured by microperimetry reflects loss of function.
Perilesional area (area within 250 microns of each side of GA lesion border) was created on fundus autofluorescence for each patient, and microperimetry endpoints were assessed within this region (68 spots on grid). In this analysis, approximately 21-22 points (out of 68 total—about one-third) qualified as “peri-lesional” using the 500 micron zone definition (250 inside and 250 outside of GA lesion border). A representative image is depicted as FIG. 5. […] Patients in both monthly (0.564 dB; p=0.0650) and every-other-month (EOM) (0.707 dB; p=0.0202) pegcetacoplan treatment groups lost less retinal sensitivity compared to the sham group over 24 months with increasing effects over time. Scotomatous points measure areas of the retina that have lost all light sensitivity and therefore are no longer functioning. Patients in both monthly (−0.680 points; p=0.1444) and EOM (−1.138 points; p=0.0140) pegcetacoplan treatment groups had fewer new scotomatous points compared to sham over 24 months with increasing effects over time.

[3] = DERBY, PEOM (N = 208), 24 months
[4] = OAKS, PEOM (N = 212), 24 months

For “Poly(oxy-1,2-ethanediyl), α-hydro-ω-hydroxy-, 15,15′-diester with N-acetyl-L-isoleucyl-L-cysteinyl-L-valyl-1-methyl-L-tryptophyl-L-glutaminyl-L-α-aspartyl-L-tryptophylglycyl-L-alanyl-L-histidyl-L-arginyl-L-cysteinyl-L-threonyl-2-[2-(2-aminoethoxy)ethoxy]acetyl-N^6-carboxy-L-lysinamide cyclic (2->12)-(disulfide) [pegcetacoplan]”, the “All TEAEs, %” value [1, 3] was “(86.5%)”, the “Iridocyclitis (serious ocular TEAE), %” value [1, 3] was 0.5% and the “Iridocyclitis (serious ocular TEAE), M (number of events)” value [1, 3] was 1 M. The “Non-ocular TEAEs, patients, %” value [1, 3] was “(68.3%)”, the “Ocular TEAEs in study eye, patients, %” value [1, 3] was “(51.9%)” and the “Serious ocular TEAEs in the study eye, %” value [1, 3] was 1.0%. For the same substance, the “Serious ocular TEAEs in the study eye, M (number of events)” value (“Serious ocular TEAEs in the study eye, M” below) [1, 3] was 4 M, the “Uveitis (serious ocular TEAE), %” value [1, 3] was 1.0% and the “Uveitis (serious ocular TEAE), M (number of events)” value [1, 3] was 2 M. For the same substance, the “Visual acuity reduced (serious ocular TEAE), %” value [1, 3] was 0.5%, the “Visual acuity reduced (serious ocular TEAE), M (number of events)” value [1, 3] was 1 M and the “All TEAEs, %” value ([1]; DERBY, PM (N = 206), 24 months) was “(86.4%)”. For the same substance, the “Non-ocular TEAEs, patients, %” value ([1]; DERBY, PM (N = 206), 24 months) was “(79.1%)”, the “Ocular TEAEs in study eye, patients, %” value ([1]; DERBY, PM (N = 206), 24 months) was “(60.7%)” and the “Optic ischemic neuropathy (serious ocular TEAE), %” value ([1]; DERBY, PM (N = 206), 24 months) was 0.5%. The “Optic ischemic neuropathy (serious ocular TEAE), M (number of events)” value ([1]; DERBY, PM (N = 206), 24 months) was 1 M, the “Retinal tear (serious ocular TEAE), %” value ([1]; DERBY, PM (N = 206), 24 months) was 0.5% and the “Retinal tear (serious ocular TEAE), M (number of events)” value ([1]; DERBY, PM (N = 206), 24 months) was 1 M. For the same substance, the “Serious ocular TEAEs in the study eye, %” value ([1]; DERBY, PM (N = 206), 24 months) was 1.9%, the “Serious ocular TEAEs in the study eye, M” value ([1]; DERBY, PM (N = 206), 24 months) was 4 M and the “Vitritis (serious ocular TEAE), %” value ([1]; DERBY, PM (N = 206), 24 months) was 1.0%. The “Vitritis (serious ocular TEAE), M (number of events)” value ([1]; DERBY, PM (N = 206), 24 months) was 2 M, the “All TEAEs, %” value [1, 4] was “(88.2%)” and the “Non-ocular TEAEs, patients, %” value [1, 4] was “(77.8%)”. The “Ocular TEAEs in study eye, patients, %” value [1, 4] was “(58.0%)”, the “Retinal detachment (serious ocular TEAE), %” value [1, 4] was 0.5% and the “Retinal detachment (serious ocular TEAE), M (number of events)” value [1, 4] was 1 M. The “Serious ocular TEAEs in the study eye, %” value [1, 4] was 1.9%, the “Serious ocular TEAEs in the study eye, M” value [1, 4] was 4 M and the “Endophthalmitis (serious ocular TEAE), %” value [1, 4] was 1.4%. For the same substance, the “Endophthalmitis (serious ocular TEAE), M (number of events)” value [1, 4] was 3 M, the “All TEAEs, %” value ([1]; OAKS, PM (N = 213), 24 months) was “(90.1%)” and the “Hyphema (serious ocular TEAE), %” value ([1]; OAKS, PM (N = 213), 24 months) was 0.5%. The “Hyphema (serious ocular TEAE), M (number of events)” value ([1]; OAKS, PM (N = 213), 24 months) was 1 M, the “Non-ocular TEAEs, patients, %” value ([1]; OAKS, PM (N = 213), 24 months) was “(81.7%)” and the “Ocular TEAEs in study eye, patients, %” value ([1]; OAKS, PM (N = 213), 24 months) was “(62.4%)”. For the same substance, the “Optic ischemic neuropathy (serious ocular TEAE), %” value ([1]; OAKS, PM (N = 213), 24 months) was 0.9%, the “Optic ischemic neuropathy (serious ocular TEAE), M (number of events)” value ([1]; OAKS, PM (N = 213), 24 months) was 2 M and the “Papilledema (serious ocular TEAE), %” value ([1]; OAKS, PM (N = 213), 24 months) was 0.5%. The “Papilledema (serious ocular TEAE), M (number of events)” value ([1]; OAKS, PM (N = 213), 24 months) was 1 M, the “Retinal detachment (serious ocular TEAE), %” value ([1]; OAKS, PM (N = 213), 24 months) was 0.5% and the “Retinal detachment (serious ocular TEAE), M (number of events)” value ([1]; OAKS, PM (N = 213), 24 months) was 1 M. For the same substance, the “Serious ocular TEAEs in the study eye, %” value ([1]; OAKS, PM (N = 213), 24 months) was 2.3%, the “Serious ocular TEAEs in the study eye, M” value ([1]; OAKS, PM (N = 213), 24 months) was 7 M and the “Endophthalmitis (serious ocular TEAE), %” value ([1]; OAKS, PM (N = 213), 24 months) was 0.9%. The “Endophthalmitis (serious ocular TEAE), M (number of events)” value ([1]; OAKS, PM (N = 213), 24 months) was 2 M, the tolerability ([1]; both Phase 3 studies) was “well tolerated” and the “microperimetry measures, perilesional” value ([2]; all p-values nominal) was “positive trends in microperimetry measures”. The “new scotomatous points (perilesional) compared to sham” value ([2]; EOM, p=0.0140 (nominal)) was −1.138 points, the “less loss of retinal sensitivity (perilesional mean threshold sensitivity) compared to sham” value ([2]; every-other-month (EOM), p=0.0202 (nominal)) was 0.707 dB and the “less loss of retinal sensitivity (perilesional mean threshold sensitivity) compared to sham” value ([2]; monthly, p=0.0650 (nominal)) was 0.564 dB. The “new scotomatous points (perilesional) compared to sham” value ([2]; monthly, p=0.1444 (nominal)) was −0.680 points.

Reference: US20260335397A1, “TREATMENT OF GEOGRAPHIC ATROPHY” (Apellis Pharmaceuticals, Inc., priority 2022, published 2026)
